Results on one protein are retold here after publication PMC6925217, “PtomtAPX, a mitochondrial ascorbate peroxidase, plays an important role in maintaining the redox balance of Populus tomentosa Carr” (Scientific Reports, 2019).

Substrate in the data set: O=C1O[C@H]([C@@H](O)CO)C(O)=C1O
Nature of the data set: steady-state Michaelis-Menten kinetics. It is filed as biochemical, Populus tomentosa. As to conditions: fixed H2O2 concentration. From the text: steady-state Michaelis-Menten kinetics on PtosAPX

One may read the Km as the concentration of substrate that gives half-maximal velocity. In general, Vmax refers to the top rate of the reaction or transport when substrate is in excess. As a reminder, the kcat is the number of substrate molecules converted per active site and unit of time at saturation. In general, kcat/Km refers to the turnover number divided by the Michaelis constant.

B1: PtosAPX (Populus tomentosa) (protein)
chain: ASDAAQLKSAREDIKELLKSKFCHPILVRLGWHDAGTYNKNIEEWAKRGGANGSLRFEIELKHAANAGLVDALKLIQPIKDKYSGVTYADLFQMASATAIEEAGGPKIPMKYGRVDVSVPDECPEEGRLPDAGPPKPADHLRGVFYRMGLDDKEIVALSGAHTLGRSRPERSGWGKPETKYTKNGPGAPGGQSWTAEWLKFDNSYFKDIKERKDEDLLVLPTDAALFEDPSFKVYAEKYAEDKEAFFKDYAEAHAKLSNLGAKFDPPEGIMLDGVAGEKFVAAKYSSGKD
notes: ORF minus N-terminal targeting peptide, pET30a, E. coli, purified; 39 kDa on SDS-PAGE; full ORF 1,086 bp; homologue of P. trichocarpa JGI 209946
For B1, the Km came to 4.30 ± 1.81 mM, the Vmax was found to be 850 µM/min, the turnover number (kcat) stood at 15000 s⁻¹ and the kcat/Km was determined as 3.48e+06 M⁻¹ s⁻¹.
